Measurements published in patent US20070254831A1 (published 2007).
Numbered stars: 1 amine (or outer) side, 2 acyl side, 3 side chain; on linkers, the order of the positions; unused ones are H or OH. Bridge positions count the residues as written; N and C are the ends. Square brackets hold non-standard residues; d marks the D form. Ends that are not written are not given here. X2 = (3R)‑3‑amino‑1‑carboxymethyl‑valerolactam, O=C1[C@H](N[*:1])CCCN1CC(=O)[*:2]; NMeL = CN[C@@H](CC(C)C)C(=O)O; Pen = CC(C)(S)[C@H](N)C(=O)O; NMeA = CN[C@@H](C)C(=O)O

B1: Peptide No. 237 (peptide)
peptide: RFXTGHFGGWYPC
modifications: Pen at 3; disulfide; C-terminal amide
B2: Peptide No. 101 (peptide)
peptide: QRF[Pen]TGHFGGIYPCNGP-NH2
modifications: disulfide 4-14; N-terminus assumed
SMILES: CC[C@H](C)[C@@H]1NC(=O)CNC(=O)CNC(=O)[C@H](Cc2ccccc2)NC(=O)[C@H](Cc2c[nH]cn2)NC(=O)CNC(=O)[C@H]([C@@H](C)O)NC(=O)[C@@H](NC(=O)[C@H](Cc2ccccc2)NC(=O)[C@H](CCCNC(=N)N)NC(=O)[C@@H](N)CCC(N)=O)C(C)(C)SSC[C@@H](C(=O)N[C@@H](CC(N)=O)C(=O)NCC(=O)N2CCC[C@H]2C(N)=O)NC(=O)[C@@H]2CCCN2C(=O)[C@H](Cc2ccc(O)cc2)NC1=O
B3: Peptide No. 238 (peptide)
peptide: QRFXTGHFGGWYPCNGP
modifications: Pen at 4; Sar at 10; disulfide; C-terminal amide
B4: Peptide No. 115 (peptide)
peptide: QRF[Pen]TGHFGGFYPCNGP-NH2
modifications: disulfide 4-14; N-terminus assumed
SMILES: C[C@@H](O)[C@@H]1NC(=O)[C@@H](NC(=O)[C@H](Cc2ccccc2)NC(=O)[C@H](CCCNC(=N)N)NC(=O)[C@@H](N)CCC(N)=O)C(C)(C)SSC[C@@H](C(=O)N[C@@H](CC(N)=O)C(=O)NCC(=O)N2CCC[C@H]2C(N)=O)NC(=O)[C@@H]2CCCN2C(=O)[C@H](Cc2ccc(O)cc2)NC(=O)[C@H](Cc2ccccc2)NC(=O)CNC(=O)CNC(=O)[C@H](Cc2ccccc2)NC(=O)[C@H](Cc2c[nH]cn2)NC(=O)CNC1=O
B5: SEQ ID NO:19 (peptide)
peptide: CTGHFGGLYPC-NH2
modifications: disulfide 1-11 (inferred)
B6: SEQ ID NO:24 (peptide)
peptide: QRFCTGHFGGLYPCN-NH2
modifications: disulfide 4-14 (inferred)
B7: SEQ ID NO:18 (peptide)
peptide: QRFCTGHFGGLYPC-NH2
modifications: disulfide 4-14 (inferred)
B8: Peptide No. 197 (peptide)
peptide: RFXTGHFXLYPC
modifications: Pen at 3; X at 8 = 5,5-bicyclic dipeptide mimic (drawing CHEM-US-00085); disulfide; C-terminal amide
B9: Peptide No. 205 (peptide)
peptide: RFXTGHFXLYPC
modifications: Pen at 3; X at 8 = 3(S)-3-amino-2-oxo-1-azepine acetic acid; disulfide; C-terminal amide
B10: Peptide No. 178 (peptide)
peptide: RFXTGHFXLYPC
modifications: Pen at 3; X at 8 = 3-amino-2-oxo-1-piperidine-acetic acid (drawing CHEM-US-00080); disulfide; C-terminal amide
B11: Peptide No. 179 (peptide)
peptide: RFXTGHFXLYPC
modifications: Pen at 3; X at 8 = 3-amino-2-oxo-1-piperidine-acetic acid (drawing CHEM-US-00081); disulfide; C-terminal amide
B12: Peptide No. 228 (peptide)
peptide: RF[Pen][NMeA]GHF[X2][NMeL]YPC-NH2
modifications: disulfide 3-12; N-terminus assumed
SMILES: CC(C)C[C@H]1C(=O)N[C@@H](Cc2ccc(O)cc2)C(=O)N2CCC[C@H]2C(=O)N[C@H](C(N)=O)CSSC(C)(C)[C@H](NC(=O)[C@H](Cc2ccccc2)NC(=O)[C@@H](N)CCCNC(=N)N)C(=O)N(C)[C@@H](C)C(=O)NCC(=O)N[C@@H](Cc2c[nH]cn2)C(=O)N[C@@H](Cc2ccccc2)C(=O)N[C@@H]2CCCN(CC(=O)N1C)C2=O
B13: Peptide No. 182 (peptide)
peptide: RFVTGHFXLYPA
modifications: X at 8 = 3-amino-2-oxo-1-piperidine-acetic acid (drawing CHEM-US-00094); linear; C-terminal amide
B14: Peptide No. 246 (peptide)
peptide: RFVTGHFG[dP]WYPA-NH2
modifications: N-terminus assumed
SMILES: CC(C)[C@H](NC(=O)[C@H](Cc1ccccc1)NC(=O)[C@@H](N)CCCNC(=N)N)C(=O)N[C@H](C(=O)NCC(=O)N[C@@H](Cc1c[nH]cn1)C(=O)N[C@@H](Cc1ccccc1)C(=O)NCC(=O)N1CCC[C@@H]1C(=O)N[C@@H](Cc1c[nH]c2ccccc12)C(=O)N[C@@H](Cc1ccc(O)cc1)C(=O)N1CCC[C@H]1C(=O)N[C@@H](C)C(N)=O)[C@@H](C)O
B15: Peptide No. 211 (peptide)
peptide: FVTGHFG[dP]WYPA-NH2
modifications: N-terminus assumed
SMILES: CC(C)[C@H](NC(=O)[C@@H](N)Cc1ccccc1)C(=O)N[C@H](C(=O)NCC(=O)N[C@@H](Cc1c[nH]cn1)C(=O)N[C@@H](Cc1ccccc1)C(=O)NCC(=O)N1CCC[C@@H]1C(=O)N[C@@H](Cc1c[nH]c2ccccc12)C(=O)N[C@@H](Cc1ccc(O)cc1)C(=O)N1CCC[C@H]1C(=O)N[C@@H](C)C(N)=O)[C@@H](C)O
B16: SEQ ID NO:22 (peptide)
peptide: FCTGHFGGLYPCNGP-NH2
modifications: disulfide 2-12 (inferred)
B17: SEQ ID NO:17 (peptide)
peptide: CTGHFGGLYPCNGP-NH2
modifications: disulfide 1-11 (inferred)
B18: SEQ ID NO:20 (peptide)
peptide: TGHFGGLYP-NH2
B19: Peptide No. 127 (peptide)
peptide: QRFDTGHFGGLYPKN-NH2
modifications: lactam 4-14; N-terminus assumed
SMILES: CC(C)C[C@@H]1NC(=O)CNC(=O)CNC(=O)[C@H](Cc2ccccc2)NC(=O)[C@H](Cc2c[nH]cn2)NC(=O)CNC(=O)[C@H]([C@@H](C)O)NC(=O)[C@@H](NC(=O)[C@H](Cc2ccccc2)NC(=O)[C@H](CCCNC(=N)N)NC(=O)[C@@H](N)CCC(N)=O)CC(=O)NCCCC[C@@H](C(=O)N[C@@H](CC(N)=O)C(N)=O)NC(=O)[C@@H]2CCCN2C(=O)[C@H](Cc2ccc(O)cc2)NC1=O
B20: Peptide No. 107 (peptide)
peptide: QRFDTGHFGGLYKNGP-NH2
modifications: lactam 4-13; N-terminus assumed
SMILES: CC(C)C[C@@H]1NC(=O)CNC(=O)CNC(=O)[C@H](Cc2ccccc2)NC(=O)[C@H](Cc2c[nH]cn2)NC(=O)CNC(=O)[C@H]([C@@H](C)O)NC(=O)[C@@H](NC(=O)[C@H](Cc2ccccc2)NC(=O)[C@H](CCCNC(=N)N)NC(=O)[C@@H](N)CCC(N)=O)CC(=O)NCCCC[C@@H](C(=O)N[C@@H](CC(N)=O)C(=O)NCC(=O)N2CCC[C@H]2C(N)=O)NC(=O)[C@H](Cc2ccc(O)cc2)NC1=O
B21: Peptide No. 131 (peptide)
peptide: QRFXTGHFGGLYPENGP
modifications: Orn at 4; side-chain lactam bridge Orn 4-Glu 14; C-terminal amide
B22: Peptide No. 99 (peptide)
peptide: RFXTGHFGGLYPC
modifications: Pen at 3; disulfide; C-terminal amide
B23: Peptide No. 144 (peptide)
peptide: RFXTGHFGPLYPCNGP
modifications: Pen at 3; D-Pro at 9; disulfide; C-terminal amide
B24: Peptide No. 201 (peptide)
peptide: QRFXTGHFGGLYPCNGP
modifications: Pen at 4; intrachain disulfide; C-terminal amide; N-termini joined by ethylene glycol-bis(succinic acid) linker
notes: N-terminally linked dimer
B25: Peptide No. 288 (peptide)
peptide: RFXTGHFGGLYPCGG
modifications: Pen at 3; Sar at 9; NMeLeu at 10; intrachain disulfide; C-termini joined on a branching Lys
notes: C-terminally linked dimer
B26: Peptide No. 279 (peptide)
peptide: RFXTGHFGGLYPC
modifications: Pen at 3; Sar at 9; NMeLeu at 10; intrachain disulfide; C-terminal amide; N-termini joined by Bis-dPEG6 diacid linker
notes: N-terminally linked dimer
B27: Peptide No. 287 (peptide)
peptide: RFXTGHFGGLYPCG
modifications: Pen at 3; Sar at 9; NMeLeu at 10; intrachain disulfide; C-termini joined on a branching Lys
notes: C-terminally linked dimer
B28: Peptide No. 280 (peptide)
peptide: RFXTGHFGGLYPC
modifications: not fully specified; Pen at 3; Sar at 9; NMeLeu at 10; intrachain disulfide; C-termini joined on the two amines of a branching Lys
notes: C-terminally linked dimer

The binders below were run against T1, soluble human FcRn (human, UniProt P55899 24-297; P61769 21-119, biotinylated (Sulfo-NHS-LC-Biotin) in the ELISA; amine-coupled to CM5 chip in SPR) (assay: ELISA, competitor human IgG).
T1 construct: also called shFcRn; biotinylated shFcRn
T1 sequence (P55899 24-297 limits assumed, chain 1 of 2): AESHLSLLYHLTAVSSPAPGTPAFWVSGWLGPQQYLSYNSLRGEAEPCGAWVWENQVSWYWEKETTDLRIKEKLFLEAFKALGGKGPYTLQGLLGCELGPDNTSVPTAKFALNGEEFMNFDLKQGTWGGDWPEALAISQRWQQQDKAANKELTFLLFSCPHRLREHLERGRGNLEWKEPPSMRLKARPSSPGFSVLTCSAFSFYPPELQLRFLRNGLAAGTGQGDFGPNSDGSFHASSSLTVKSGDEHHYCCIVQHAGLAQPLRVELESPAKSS
T1 sequence (P61769 21-119 limits assumed, chain 2 of 2): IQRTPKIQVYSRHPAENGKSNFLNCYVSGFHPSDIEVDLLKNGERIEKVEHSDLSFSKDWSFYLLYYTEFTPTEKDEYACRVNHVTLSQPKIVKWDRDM
Experimental: (§1) The wells were coated with 100 μl/well of 1 μg/ml biotinylated-shFcRn in Buffer A. The plate was sealed and incubated at 37° C. for 2 hours. Afterwards, the plate washed with 200 μl/well of Buffer B (Buffer B: 100 mM MES pH 6, 150 mM NaCl, 0.5% BSA IgG-free (Jackson ImmunoResearch, West Grove, Pa.), 0.05% Tween-20). […] To allow for mixing, the plate was rocked for 2 minutes, sealed and incubated at 37° C. for 2 hours. […] The plate was covered, incubated for 30 minutes at room temperature and washed 4 times with 200 μl/well of ice-cold buffer B. SureBlue TMB substrate solution (100 μl/well, KPL, Gaithersburg, Md.) was added and the plate was allowed to incubate at room temperature until color developed, which took 5 to 10 minutes. Once color developed, 100 μl/well of TMB stop solution (KPL, Gaithersburg, Md.) was added and the absorbance was measured at 450 nm. The data was plotted as absorbance vs. peptide concentration to derive the inhibitory concentration 50% (IC₅₀) values.
B1 gave an IC50 of 2.8 µM. In the case of B2, the IC50 is reported as 3.4 µM. B3 gave an IC50 of 1 µM. Work on B4 yielded an IC50 of 4.1 µM.

What follows are binders tested against T1, soluble human FcRn (assay: SPR, pH 7.4).
Experimental: (§2) The following steps were performed to cross-link soluble human or cynomolgus FcRn to the dextran surface of a CM5 sensor chip (Biacore AB, Uppsala, Sweden) by an amine coupling reaction involving 1-ethyl-(3-dimethylaminopropyl)-carbodiimide hydrochloride (EDC) (Biacore AB, Uppsala, Sweden) and N-hydroxysuccinimide (NHS) (Biacore AB, Uppsala, Sweden) as recommended by Biacore (BIAapplications Handbook, version AB, section 4.2, Biacore AB, Uppsala, Sweden). […] Residual sites on the FcRn flow cell were blocked with 1 M ethanolamine hydrochloride pH 8.5 (Biacore AB, Uppsala, Sweden). A control flow cell was blocked with ethanolamine for reference subtraction. For analysis of the monomeric peptides, FcRn was coated to a final density of 4000-5000 response units (RU). For analysis of the peptide dimers, FcRn was coated to a density of 2000-2500 RU. All SPR measurements were performed using a BIACORE 3000 Instrument (Biacore AB Uppsala, Sweden). For measurements done at either pH 6 or pH 7.4, experiments were performed in 50 mM phosphate, 100 mM sodium chloride, 0.01% surfactant P20 (Biacore AB, Uppsala, Sweden).
(§3) Ten, 2-fold dilutions of the peptide were injected over the FcRn-CM5 chip at a rate of 20 μl/min for 2 min. The peptide was dissociated from the chip for 2.5 minutes with buffer. Any remaining peptide was removed from the chip with a 30 second injection of HBS-P buffer (Biacore AB, Uppsala, Sweden) at a rate of 30 μl/min. Sensorgrams were generated and analyzed using BiaEval software version 3.1 (Biacore AB, Uppsala, Sweden). The equilibrium RU observed for each injection was plotted against concentration. The equilibrium KD values were derived by analysis of the plots using the steady state affinity model included in the BiaEval software.
B5 showed a Kd of 320 µM. B6 was tested, and the Kd was 73 µM. With B7 the Kd was 26 µM.

These binders were tested against T1, soluble human FcRn (assay: SPR, pH 6).
Experimental: as §2, §3
For B8, the Kd was 0.99 µM. Binder B9 has a Kd of 0.103 µM. In the case of B10, the Kd is reported as 0.16 µM. B11 gave a Kd of 0.67 µM. For B12, the Kd was 0.145 µM.

Biological target: T1, soluble human FcRn
Assay: ELISA, competitor human IgG
Remark: another data set of the same source
Experimental: as §1
B13 was tested, and the IC50 was 38 µM.

Biological target: T1, soluble human FcRn
Assay: ELISA, competitor human IgG
Remark: another data set of the same source
For B14, the IC50 was 60 µM. Work on B15 yielded an IC50 of 100 µM.

Biological target: T1, soluble human FcRn
Assay: ELISA, competitor human IgG
Remark: another data set of the same source
Experimental: as §1
Binder B16 has an IC50 of 67 µM. B17 gave an IC50 of 239 µM. B18 was tested, and the IC50 was greater than 250 µM. B5 showed an IC50 of 110 µM.

Biological target: T1, soluble human FcRn
Assay: ELISA, competitor human IgG
Remark: another data set of the same source
Experimental: as §1
In the case of B19, the IC50 is reported as 7.6 µM. For B20, the IC50 was greater than 125 µM. B21 gave an IC50 of 30 µM.

Biological target: T1, soluble human FcRn
Assay: SPR, pH 6
Remark: another data set of the same source
Experimental: as §2, §3
For B16, the Kd was 11 µM. B17 gave a Kd of 34 µM. Work on B5 yielded a Kd of 20 µM. Binder B6 has a Kd of 6.1 µM.

Biological target: T1, soluble human FcRn
Assay: ELISA, competitor human IgG
Remark: another data set of the same source
Experimental: as §1
With B9 the IC50 was 0.64 µM. Work on B10 yielded an IC50 of 0.66 µM. B11 was tested, and the IC50 was 7.2 µM. Binder B22 has an IC50 of 2 µM. In the case of B12, the IC50 is reported as 1.1 µM.

Biological target: T1, soluble human FcRn
Assay: ELISA, competitor human IgG
Remark: another data set of the same source
Experimental: as §1
In the case of B22, the IC50 is reported as 2 µM. Binder B23 has an IC50 of 1.5 µM.

Biological target: T1, soluble human FcRn
Assay: SPR, pH 6
Remark: another data set of the same source
Experimental: as §2, §3
B1 gave a Kd of 0.14 µM. B2 gave a Kd of 0.34 µM. In the case of B4, the Kd is reported as 0.4 µM.

Biological target: T1, soluble human FcRn
Assay: SPR, pH 6
Remark: another data set of the same source
Experimental: as §2, §3
Work on B14 yielded a Kd of 3.6 µM. B15 gave a Kd of 8 µM.

Biological target: T1, soluble human FcRn
Assay: ELISA, competitor human IgG
Remark: another data set of the same source
Experimental: as §1
In the case of B24, the IC50 is reported as 0.026 µM. B25 showed an IC50 of 0.016 µM. Work on B26 yielded an IC50 of 0.007 µM. Work on B27 yielded an IC50 of 0.02 µM. B28 gave an IC50 of 0.025 µM.
